Measured values published in patent US20220275100A1 (JIANGSU HENGRUI MEDICINE, published 2022).

Target: T1, Fusion protein of CD38 extracellular domain with His tag: CD38-ECD-His (human, UniProt P28907 43-300)
T1 construct: unlabelled analyte in Biacore; also called human CD38-ECD-His; Human CD38-His
Experiment: SPR (Biacore), antibody captured by anti-human Fc, CD38-ECD-His as analyte;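 also: human CD38-ECD-His flowed over the captured antibody with the signal tracked in real time, and association and dissociation curves were fitted to derive the affinity values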
Experimental: Then the human CD38-ECD-His antigen passed through the surface of the chip, and a real-time detection for the reaction signal was performed with Biacore instrument. The resulting binding and dissociation curves were fitted to calculate the affinity values. After the dissociation of each cycle was completed in the experiment, the biochip was washed and regenerated with the regeneration solution supplied in the Human Fc Capture Kit (GE).

Row | Kd | koff | kon | Binder
1 | 0.995 nM | 0.0021 s⁻¹ | 2.11e+06 M⁻¹ s⁻¹ | h009-07 (antibody, human IgG1, kappa, Humanized, human IgG1 / kappa; h009 VH2 + h009 VL2) heavy: not shown light: EIVLTQSPATLSLSPGERATLSCRASQSIYTNLHWYQQKPGQSPRLLIKYASQSISGIPARFSGSGSGTDFTLTISSLEPEDFAVYYCQQSNSWPLTFGGGTKVEIKRTVAAPSVFIFPPSDEQLKSGTASVVCLLNNFYPREAKVQWKVDNALQSGNSQESVTEQDSKDSTYSLSSTLTLSKADYEKHKVYACEVTHQGLSSPVTKSFNRGEC
2 | 2.14 nM | 0.00489 s⁻¹ | 2.29e+06 M⁻¹ s⁻¹ | h009-09 (antibody, human IgG1, kappa, V domains shown) VH: EFQLVQSGAEVKKPGASVKVSCKASGYTFTDYNLNWVKQAPGQSLEWMGVINPKYDAINYNQKFKDKVTLTVDQSASTAYMELSSLRSEDTAVYYCAREGWGKALDYWGQGTLVTVSS VL: EIVLTQSPATLSLSPGERATLSCRASQSIYTNLHWYQQKPGQSPRLLIKYASQSISGIPARFSGSGSGTDFTLTISSLEPEDFAVYYCQQSNSWPLTFGGGTKVEIKR
3 | 0.815 nM | 0.00185 s⁻¹ | 2.27e+06 M⁻¹ s⁻¹ | h009-14 (antibody, human IgG1, kappa, V domains shown) VH: EFQLVQSGAEVKKPGASVKVSCKASGYTFTDYNLNWVKQAPGQSLEWMGVINPKYDAINYNQKFKDKVTLTVDQSASTAYMELSSLRSEDTAVYYCAREGWGKALDYWGQGTLVTVSS VL: EFVLTQSPATLSLSPGERATLSCRASQSIYTNLHWYQQKPGQSPRLLIKYASQSISGIPARFSGSGSGTDFTLTISSLEPEDFAVYFCQQSNSWPLTFGGGTKVEIKR
4 | 1.18 nM | 0.00223 s⁻¹ | 1.89e+06 M⁻¹ s⁻¹ | h009-08 (antibody, human IgG1, kappa, V domains shown) VH: EFQLVQSGAEVKKPGASVKVSCKASGYTFTDYNLNWVRQAPGQSLEWIGVINPKYDAINYNQKFKDRATITVDTSASTAYMELSSLRSEDTAVYYCAREGWGKALDYWGQGTLVTVSS VL: EIVLTQSPATLSLSPGERATLSCRASQSIYTNLHWYQQKPGQSPRLLIKYASQSISGIPARFSGSGSGTDFTLTISSLEPEDFAVYYCQQSNSWPLTFGGGTKVEIKR
5 | 0.409 nM | 0.000917 s⁻¹ | 2.24e+06 M⁻¹ s⁻¹ | h009-12 (antibody, human IgG1, kappa, V domains shown) VH: EFQLVQSGAEVKKPGASVKVSCKASGYTFTDYNLNWVRQAPGQSLEWMGVINPKYDAINYNQKFKDRVTITVDTSASTAYMELSSLRSEDTAVYYCAREGWGKALDYWGQGTLVTVSS VL: EFVLTQSPATLSLSPGERATLSCRASQSIYTNLHWYQQKPGQSPRLLIKYASQSISGIPARFSGSGSGTDFTLTISSLEPEDFAVYFCQQSNSWPLTFGGGTKVEIKR
6 | 0.745 nM | 0.0017 s⁻¹ | 2.28e+06 M⁻¹ s⁻¹ | h009-15 (antibody, human IgG1, kappa, V domains shown) VH: EFQLVQSGAEVKKPGASVKVSCKASGYTFTDYNLNWVKQAPGQSLEWIGVINPKYDAINYNQKFKDKATLTVDQSASTAYMELSSLRSEDTAVYYCAREGWGKALDYWGQGTLVTVSS VL: EFVLTQSPATLSLSPGERATLSCRASQSIYTNLHWYQQKPGQSPRLLIKYASQSISGIPARFSGSGSGTDFTLTISSLEPEDFAVYFCQQSNSWPLTFGGGTKVEIKR
7 | 0.465 nM | 0.00106 s⁻¹ | 2.28e+06 M⁻¹ s⁻¹ | h009-13 (antibody, human IgG1, kappa, V domains shown) VH: EFQLVQSGAEVKKPGASVKVSCKASGYTFTDYNLNWVRQAPGQSLEWIGVINPKYDAINYNQKFKDRATITVDTSASTAYMELSSLRSEDTAVYYCAREGWGKALDYWGQGTLVTVSS VL: EFVLTQSPATLSLSPGERATLSCRASQSIYTNLHWYQQKPGQSPRLLIKYASQSISGIPARFSGSGSGTDFTLTISSLEPEDFAVYFCQQSNSWPLTFGGGTKVEIKR
8 | 2.12 nM | 0.00433 s⁻¹ | 2.04e+06 M⁻¹ s⁻¹ | h009-10 (antibody, human IgG1, kappa, V domains shown) VH: EFQLVQSGAEVKKPGASVKVSCKASGYTFTDYNLNWVKQAPGQSLEWIGVINPKYDAINYNQKFKDKATLTVDQSASTAYMELSSLRSEDTAVYYCAREGWGKALDYWGQGTLVTVSS VL: EIVLTQSPATLSLSPGERATLSCRASQSIYTNLHWYQQKPGQSPRLLIKYASQSISGIPARFSGSGSGTDFTLTISSLEPEDFAVYYCQQSNSWPLTFGGGTKVEIKR
9 | 5.17 nM | 0.0121 s⁻¹ | 2.33e+06 M⁻¹ s⁻¹ | h009-11 (antibody, human IgG1, kappa, V domains shown) VH: EVQLVQSGAEVKKPGASVKVSCKASGYTFTDYNLNWVRQAPGQRLEWMGVINPKYDAINYNQKFKDRVTITRDTSASTAYMELSSLRSEDTAVYYCAREGWGKALDYWGQGTLVTVSS VL: EFVLTQSPATLSLSPGERATLSCRASQSIYTNLHWYQQKPGQSPRLLIKYASQSISGIPARFSGSGSGTDFTLTISSLEPEDFAVYFCQQSNSWPLTFGGGTKVEIKR
10 | 0.0687 nM | 0.000136 s⁻¹ | 1.99e+06 M⁻¹ s⁻¹ | h160-01 (antibody, human IgG1, kappa, Humanized, human IgG1 / kappa; h160 VH1 + h160 VL1) heavy: not shown light: DIVMTQSPASLAVSLGERATINCRASESVDNYGISFMHWYQQKPGQPPKLLIYRASNLESGVPDRFSGSGSGTDFTLTISSLQAEDVAVYYCQQTNKDPLTFGGGTKVEIKRTVAAPSVFIFPPSDEQLKSGTASVVCLLNNFYPREAKVQWKVDNALQSGNSQESVTEQDSKDSTYSLSSTLTLSKADYEKHKVYACEVTHQGLSSPVTKSFNRGEC
11 | 0.0867 nM | 0.000184 s⁻¹ | 2.12e+06 M⁻¹ s⁻¹ | h160-04 (antibody, human IgG1, kappa, V domains shown) VH: EVQLVESGGGLVQPGGSLRLSCAASGFTFSDYGMHWVRQAPGKGLEWVAFISTGSSNIYYVDKVKGRFTISRDNAKNTLYLQMTSLRAEDTAVYYCARNYVSSYGYFDYWGQGTTVTVSS VL: DIVLTQSPASLAVSLGERATISCRASESVDNYGISFMHWYQQKPGQPPKLLIYRASNLESGIPARFSGSGSRTDFTLTISSLQAEDVAVYYCQQTNKDPLTFGGGTKVEIKR
12 | 0.0779 nM | 0.000187 s⁻¹ | 2.4e+06 M⁻¹ s⁻¹ | h160-03 (antibody, human IgG1, kappa, V domains shown) VH: EVQLVESGGGLVQPGGSLRLSCAASGFTFSDYGMHWVRQAPGKGLEWVAFISTGSSNIYYVDKVKGRFTISRDNAKNTLYLQMTSLRAEDTAVYYCARNYVSSYGYFDYWGQGTTVTVSS VL: DIVLTQSPASLAVSLGERATINCRASESVDNYGISFMHWYQQKPGQPPKLLIYRASNLESGVPARFSGSGSRTDFTLTISSLQAEDVAVYYCQQTNKDPLTFGGGTKVEIKR
13 | 0.306 nM | 0.00213 s⁻¹ | 6.97e+06 M⁻¹ s⁻¹ | h011-03 (antibody, human IgG1, kappa, V domains shown) VH: EVQLVESGGGLVQPGGSLRLSCAASGFTFSDYGMHWVRQAPGKGLEWVAFISSGSSSIYYADTVKGRFTISRDNAKSSLYLQMTSLRAEDTAVYYCARNYVSSYGYFDYWGQGTTVTVSS VL: DIVMTQSPDSLAVSLGERATINCRASENVDNYGISFMHWYQQKPGQPPKLLIYRASNLESGVPDRFSGSGSRTDFTLTISSLQAEDVAVYYCQQSNKDPLTFGGGTKVEIKR
14 | 0.0691 nM | 0.000141 s⁻¹ | 2.05e+06 M⁻¹ s⁻¹ | h160-05 (antibody, human IgG1, kappa) heavy: not shown light: DIVMTQSPASLAVSLGERATINCRASESVDNYGISFMHWYQQKPGQPPKLLIYRASNLESGVPDRFSGSGSGTDFTLTISSLQAEDVAVYYCQQTNKDPLTFGGGTKVEIKRTVAAPSVFIFPPSDEQLKSGTASVVCLLNNFYPREAKVQWKVDNALQSGNSQESVTEQDSKDSTYSLSSTLTLSKADYEKHKVYACEVTHQGLSSPVTKSFNRGEC
15 | 0.311 nM | 0.00208 s⁻¹ | 6.68e+06 M⁻¹ s⁻¹ | h011-01 (antibody, human IgG1, kappa, Humanized, human IgG1 / kappa; h011 VH1 + h011 VL1) heavy: not shown light: DIVMTQSPDSLAVSLGERATINCRASENVDNYGISFMHWYQQKPGQPPKLLIYRASNLESGVPDRFSGSGSGTDFTLTISSLQAEDVAVYYCQQSNKDPLTFGGGTKVEIKRTVAAPSVFIFPPSDEQLKSGTASVVCLLNNFYPREAKVQWKVDNALQSGNSQESVTEQDSKDSTYSLSSTLTLSKADYEKHKVYACEVTHQGLSSPVTKSFNRGEC
16 | 0.0846 nM | 0.000163 s⁻¹ | 1.93e+06 M⁻¹ s⁻¹ | h160-02 (antibody, human IgG1, kappa) heavy: not shown light: DIVLTQSPASLAVSLGERATINCRASESVDNYGISFMHWYQQKPGQPPKLLIYRASNLESGVPDRFSGSGSGTDFTLTISSLQAEDVAVYYCQQTNKDPLTFGGGTKVEIKRTVAAPSVFIFPPSDEQLKSGTASVVCLLNNFYPREAKVQWKVDNALQSGNSQESVTEQDSKDSTYSLSSTLTLSKADYEKHKVYACEVTHQGLSSPVTKSFNRGEC
17 | 0.299 nM | 0.00202 s⁻¹ | 6.76e+06 M⁻¹ s⁻¹ | h011-04 (antibody, human IgG1, kappa, V domains shown) VH: EVQLVESGGGLVQPGGSLRLSCAASGFTFSDYGMHWVRQAPGKGLEWVAFISSGSSSIYYADTVKGRFTISRDNAKSSLFLQMTSLRAEDTAVYSCARNYVSSYGYFDYWGQGTTVTVSS VL: DIVMTQSPDSLAVSLGERATINCRASENVDNYGISFMHWYQQKPGQPPKLLIYRASNLESGVPDRFSGSGSRTDFTLTISSLQAEDVAVYYCQQSNKDPLTFGGGTKVEIKR
18 | 0.0782 nM | 0.000164 s⁻¹ | 2.09e+06 M⁻¹ s⁻¹ | h160-06 (antibody, human IgG1, kappa) heavy: not shown light: DIVLTQSPASLAVSLGERATINCRASESVDNYGISFMHWYQQKPGQPPKLLIYRASNLESGVPDRFSGSGSGTDFTLTISSLQAEDVAVYYCQQTNKDPLTFGGGTKVEIKRTVAAPSVFIFPPSDEQLKSGTASVVCLLNNFYPREAKVQWKVDNALQSGNSQESVTEQDSKDSTYSLSSTLTLSKADYEKHKVYACEVTHQGLSSPVTKSFNRGEC
19 | 0.297 nM | 0.00195 s⁻¹ | 6.59e+06 M⁻¹ s⁻¹ | h011-02 (antibody, human IgG1, kappa, V domains shown) VH: EVQLVESGGGLVQPGGSLRLSCAASGFTFSDYGMHWVRQAPGKGLEWVAFISSGSSSIYYADTVKGRFTISRDNAKSSLFLQMTSLRAEDTAVYSCARNYVSSYGYFDYWGQGTTVTVSS VL: DIVMTQSPDSLAVSLGERATINCRASENVDNYGISFMHWYQQKPGQPPKLLIYRASNLESGVPDRFSGSGSGTDFTLTISSLQAEDVAVYYCQQSNKDPLTFGGGTKVEIKR
20 | 0.309 nM | 0.00213 s⁻¹ | 6.89e+06 M⁻¹ s⁻¹ | h011-05 (antibody, human IgG1, kappa, V domains shown) VH: EVQLVESGGGLVQPGGSLRLSCAASGFTFSDYGMHWVRQAPGKGLEWVAFISSGSSSIYYADTVKGRFTISRDNAKSSLYLQMTSLRAEDTAVYYCARNYVSSYGYFDYWGQGTTVTVSS VL: DIVMTQSPDSLAVSLGERATINCRASENVDNYGISFMHWYQQKPGQPPKLLIYRASNLESGIPDRFSGSGSRTDFTLTISSLQAEDVATYYCQQSNKDPLTFGGGTKVEIKR
